Our source for the binding result and Kd values is article PMC8727931, “The crystal structure of the FAM134B–GABARAP complex provides mechanistic insights into the selective binding of FAM134 to the GABARAP subfamily” (FEBS Open Bio, 2021).

No end group written: not given here.

Broadly, the Kd is the constant that tells how readily two partners part at equilibrium.

Holding throughout (details): both partners purified
Assay [1] has as its target T1, GABARAPL1 (UniProt Q8R3R8 1-117).
T1 construct: GABARAPL1; source: E. coli BL21 (DE3), purified
The experiment in a line: SEC; FAM134A mixed with GABARAPL1 or LC3B at a 1:1 molar ratio; qualitative. Background: SEC sorts molecules by how far they enter the pores of the column.

The target in assay [2] is T2, LC3A (recombinant, for ITC) (UniProt Q91VR7 1-121).
T2 construct: LC3A; source: E. coli BL21 (DE3), purified
Put plainly: ITC; VP-ITC, 25 °C; 50 mM Tris/HCl pH 7.5, 100 mM NaCl, 1 mM DTT, 1 mM EDTA; GABARAP or LC3A (350 uM) injected into Trx-tagged FAM134B (35 uM) in the cell; one-site binding model. (In ITC the heat of successive injections is recorded.)

The target in assay [3] is T3, GABARAP (recombinant, for ITC, SEC and crystallization) (UniProt Q9DCD6 1-117).
T3 construct: GABARAP; also called recombinant GABARAP protein; source: E. coli BL21 (DE3), purified
T3 sequence (Q9DCD6 whole entry): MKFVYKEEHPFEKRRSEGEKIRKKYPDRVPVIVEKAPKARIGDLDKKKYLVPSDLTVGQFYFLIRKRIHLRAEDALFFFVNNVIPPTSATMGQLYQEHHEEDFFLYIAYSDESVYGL
Described as above.

The next assay has as its target LC3B (UniProt Q9CQV6 1-120). Put plainly: SEC-MALS; Superose 12 10/300GL column; 100 mM NaCl, 50 mM Tris/HCl pH 7.5, 1 mM DTT, 1 mM EDTA; proteins mixed at a 1:1 molar ratio.
The target of assay [4] is T1, GABARAPL1. Described as above.

B1: human FAM134A fragment (residues 488-513) (domain or fragment)
chain: TTEDFELLDQGELEQLNAELGLEPET
notes: FAM134A, human, residues 488-513; source: E. coli BL21 (DE3), purified
B1: the binding result with GABARAPL1 [1] is “binds”.

B2: Trx-tagged FAM134B LIR (aa 451-476) (domain or fragment, UniProt Q9H6L5 451-476, looked up)
chain: EGDDFELLDQSELDQIESELGLTQDQ
modifications: also: Trx-tagged
notes: FAM134B (reticulophagy regulator 1), LIR and C-terminal extension, residues 451-476; 451-476 is what the results give for FAM134B LIR; Named 'Trx-tagged FAM134B' for ITC; I take the same construct for SEC-MALS; source: E. coli BL21 (DE3), purified (Ni2+-NTA, size-exclusion chromatography); not shown: Trx-His6, N-terminal, kept
On to B2, for which the Kd in assay [2] was around 376 nM; in assay [3] it was 42 nM. Also, the binding result with LC3B and in the assay with GABARAPL1 [4] was “binds” each time.
